# Results: patent US20100260765A1 (AstraZeneca / MedImmune, published 2010)
# Columns and labels:
# Test in all cases: cell-based or functional assay
# [1] = biological target: T1, KDR (human, UniProt P35968 20-1356)
# [2] = biological target: T1, KDR; remark: listed apart in the source
# [3] = biological target: T1, KDR; remark: listed apart in the source
# [4] = biological target: T1, KDR; remark: listed apart in the source
# [5] = biological target: T1, KDR; remark: listed apart in the source
# T1 sequence (P35968 20-1356): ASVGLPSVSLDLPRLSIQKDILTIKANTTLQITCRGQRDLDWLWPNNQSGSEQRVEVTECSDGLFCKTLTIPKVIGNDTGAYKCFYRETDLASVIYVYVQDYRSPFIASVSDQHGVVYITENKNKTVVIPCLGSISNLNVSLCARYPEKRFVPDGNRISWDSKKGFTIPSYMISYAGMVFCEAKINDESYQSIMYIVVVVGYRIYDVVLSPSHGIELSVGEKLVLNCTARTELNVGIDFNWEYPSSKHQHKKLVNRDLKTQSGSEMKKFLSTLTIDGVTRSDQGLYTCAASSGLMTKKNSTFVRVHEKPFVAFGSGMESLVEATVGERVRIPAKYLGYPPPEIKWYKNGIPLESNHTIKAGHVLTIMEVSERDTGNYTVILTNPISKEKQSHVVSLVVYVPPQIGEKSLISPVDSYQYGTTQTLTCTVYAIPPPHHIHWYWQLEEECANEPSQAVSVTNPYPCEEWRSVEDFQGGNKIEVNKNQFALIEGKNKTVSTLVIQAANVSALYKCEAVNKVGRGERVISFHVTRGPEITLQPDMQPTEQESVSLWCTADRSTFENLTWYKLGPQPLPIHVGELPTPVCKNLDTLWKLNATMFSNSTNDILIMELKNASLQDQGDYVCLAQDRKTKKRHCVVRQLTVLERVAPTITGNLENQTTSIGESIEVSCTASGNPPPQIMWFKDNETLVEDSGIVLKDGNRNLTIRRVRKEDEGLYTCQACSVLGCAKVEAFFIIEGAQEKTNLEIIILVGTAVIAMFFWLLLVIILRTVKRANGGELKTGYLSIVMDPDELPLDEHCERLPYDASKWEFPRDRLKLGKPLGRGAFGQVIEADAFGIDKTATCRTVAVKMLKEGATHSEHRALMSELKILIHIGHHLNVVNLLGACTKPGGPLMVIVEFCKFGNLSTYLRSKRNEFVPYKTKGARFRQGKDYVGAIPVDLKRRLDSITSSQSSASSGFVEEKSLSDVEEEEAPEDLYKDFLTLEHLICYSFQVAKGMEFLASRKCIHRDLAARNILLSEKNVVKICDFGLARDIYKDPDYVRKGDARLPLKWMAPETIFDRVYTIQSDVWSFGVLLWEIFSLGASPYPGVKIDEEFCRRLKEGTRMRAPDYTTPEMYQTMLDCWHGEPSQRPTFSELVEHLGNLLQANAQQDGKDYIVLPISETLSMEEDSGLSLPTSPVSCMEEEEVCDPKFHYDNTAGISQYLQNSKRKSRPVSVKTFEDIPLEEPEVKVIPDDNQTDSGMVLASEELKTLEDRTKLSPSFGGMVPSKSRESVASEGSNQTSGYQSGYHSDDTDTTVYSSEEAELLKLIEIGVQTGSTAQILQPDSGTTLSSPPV
Binder,"Activity at 133 nM (% Inhibition), 1-hour Pre-incubation at 4° C., Average [1]","Activity at 133 nM (% Inhibition), 1-hour Pre-incubation at 4° C., N = 1 [1]","Activity at 133 nM (% Inhibition), 24-hour Pre-incubation at 37° C., Average [2]","Activity at 133 nM (% Inhibition), 24-hour Pre-incubation at 37° C., N = 1 [2]","% of Max VEGF KDR pTyr Activity (at 133 nM antibody concentration), Average [3]","% of Max VEGF KDR pTyr Activity (at 133 nM antibody concentration), N = 1 [3]","Activity at 133 nM Antibody Concentration (% Survival Inhibition), Average [4]","Activity at 133 nM Antibody Concentration (% Survival Inhibition), N = 1 [4]","% Inhibition of VEGF165-mediated 6-keto Prostaglandin F1α release at 133 nM Antibody Concentration, Average [5]","% Inhibition of VEGF165-mediated 6-keto Prostaglandin F1α release at 133 nM Antibody Concentration, N = 1 [5]","Activity at 133 nM (% Inhibition), 1-hour Pre-incubation at 4° C., N = 2 [1]","Activity at 133 nM (% Inhibition), 24-hour Pre-incubation at 37° C., N = 2 [2]","% of Max VEGF KDR pTyr Activity (at 133 nM antibody concentration), N = 2 [3]","Activity at 133 nM Antibody Concentration (% Survival Inhibition), N = 2 [4]","% Inhibition of VEGF165-mediated 6-keto Prostaglandin F1α release at 133 nM Antibody Concentration, N = 2 [5]"
"24C9 (antibody, V domains shown) VH: EVQLVESGGGLVKPGGSLRLSCAASGFTFSTYSMNWVRQAPGKGLEWVSFISGRSSYIYYADSVKGRFTISRDNAKNSLYLQMNSLRAEDTAVYYCSKDDWFEELWGQGTLVTVSS VL: DIQMTQSPSSLSASVGDRVTITCRASQGIRNDLGWYQQKPGKAPKRLIYATFSLQSGVPSRFSGSGSGTEFTLTISSLQPEDFATYYCLQHNRYPWTFGQGTKVEIK",81%,81%,46%,46%,13%,13%,57%,57%,91%,91%,–,–,–,–,–
"33E1 (antibody, V domains shown) VH: QVQLQESGPGLVKPSQTLSLTCTVSGGSISSGDHYWSWIRQHPGKGLEWIGHIYYSGSTDYNPSLKSRVTISVDTSKNHFSLKLNSVTAADTAVYYCARTNSSSWSDWYFDLWGRGTLVTVSS VL: DIVMTQSPDSLAVSLGERATINCKSSQSILYSSNNKNYLAWYQRKPGQPPILLIHWASTRESGVPDRFSGSGSRTDFTLTISSLQAEDVAVYYCQQYFITPWTFGQGTKVEIK",77%,78%,77%,85%,8%,5%,92%,86%,113%,128%,75%,68%,10%,97%,98%
